{"source": "patent US8415106B2", "about": "“Cell-based screen for agents useful for reducing neuronal demyelination or promoting neuronal remyelination” (Myelin Repair Foundation, Inc., priority 2005, dated 2013)", "molecules": {"B1": {"name": "IFN-γ: pleotropic cytokine secreted by activated T lymphocytes and natural killer cells; recombinant rat IFN-γ added to cultures or transgenically expressed in mouse CNS (protein, UniProt P01581 23-156, looked up)", "Interferon gamma": "QGTLIESLESLKNYFNSSSMDAMEGKSLLLDIWRNWQKDGNTKILESQIISFYLRLFEVLKDNQAISNNISVIESHLITNFFSNSKAKKDAFMSIAKFEVNNPQIQHKAVNELIRVIHQLSPESSLRKRKRSRC"}}, "key": {"mice with EAE": {"test_system": "mice with EAE", "test": "MOG35-55-induced EAE, CNS delivery of INF-γ at the recovery stage (doxycycline withdrawn at PID7)", "type": "in vivo", "conditions": "DOX− mice", "excerpt": "Double transgenic mice that allow for temporally regulated delivery of INF-γ to the CNS (Lin et al., J Neurosci 24:10074-10083 (2004)) were used to assess the role of INF-γ in the pathogenesis of EAE. GFAP/tTA; TRE/IFN-γ double transgenic mice, as described in Example 1 were used to determine the effect of INF-γ on the demyelination caused by EAE. All mice were fed doxycycline from the day of conception to repress the expression of INF-γ, and were immunized with myelin oligodendrocyte protein (MOG35-55) to induce EAE. At day 7 postimmunization (PID7), doxycycline was withdrawn from the experimental group (PID7 DOX−).\nThe level of INF-γ was determined in the control (DOX+) and the PID7 DOX− mice using an ELISA immunoassay as described in Example 1, and the severity of the disease was assessed as a function of a clinical score. Clinical severity scores were recorded daily according to a 0-5 point scale, where 0=healthy, 1=flaccid tail, 2=ataxia and/or paresis of hind limbs, 3=paralysis of hind limbs and/or paresis of forelimbs, 4=tetraparalysis, and 5=moribund or dead.\nThe spinal cord from DOX+ and DOX− animals with EAE was immunostained for MBP, and the remyelination of axons was evaluated. The number of oligodendrocytes was determined in the spine from DOX+ and DOX− mice as the number of CC1 positive cells. Axonal damage was evaluated by immunostaining of non-phosphorylated neurofilament-H. Antibodies to non-phosphorylated neurofilament-H Were SMI32 diluted to 1:1000 and obtained from Sternberger Monoclonals."}, "[1]": {"test_system": "oligodendrocytes and myelin in the corpus callosum", "test": "Cuprizone remyelination in double transgenic mice on PERK+/+ or PERK+/− background", "type": "in vivo", "conditions": "for remyelinated axons: 9 weeks", "excerpt": "The involvement of the ER stress response in the reduction caused by IFN-γ to remyelinate lesions was examined in transgenic mice that were generated to be heterozygous for a loss of function mutation in pancreatic ER kinase (PERK) (Harding, et al., (2001) Mol Cell 7:1153-1163), and to be temporally regulated for expressing INF-γ in the CNS. TRE/IFN-γ mice were first crossed with PERK+/− mice (Harding, et al. (2001) Mol. Cell 7: 1153-1163) on the C57BL/6 background to generate mice the carry the PERK mutation, and the resulting progeny were crossed to GFAP/tTA mice to obtain transgenic mice that were heterozygous for the PERK mutation. The effect of PERK on remyelination in the presence or absence of INF-γ was evaluated as evaluated as a function of the level of myelination of oligodendrocytes in remyelinating lesions and the number of oligodendrocytes present in the remyelinating lesion.\nThe extent of remyelination was assessed as described in the previous examples in the corpus callosum of PERK+/+ and PERK+/− mice that were made to express INF-γ (DOX−PERK+/+ and DOX− PERK+/−), and in mice in which the expression of INF-γ was repressed (DOX+PERK+/+ and DOX+PERK+/−). Remyelination was determined by electron microscopy, and was related to the number of CC1 positive oligodendrocytes and the level of caspase-3 expression in the corpus callosum of all animals. The level of caspase-3 was determined by immunohistochemical methods using anti capsase antibody (active-casoase-3 antibody, 1:50; Cel Signaling Technology) and according to the method described in Example 1. Demyelination was induced in six-week-old GFAP/tTA; TRE/IFN-γ double transgenic mice on a PERK+/− background that had been maintained on doxycycline, by simultaneously treating the mice with 0.2% cuprizone and releasing them from doxycycline (DOX−PERK+/−). Remyelination was allowed to occur by withdrawing cuprizone at week 6."}, "[2]": {"test_system": "ER stress markers (BIP, CHOP, caspase-12)", "test": "ER stress markers in the CNS of 14-day-old mice ectopically expressing IFN-γ (released from doxycycline at E14)", "type": "in vivo", "conditions": "PND 14, DOX− from E14", "excerpt": "To study the effect of INF-γ on the myelination of oligodendrocytes during mouse development, transgenic mice that allow for temporally regulated delivery of IFN-γ to the CNS using the tetracycline (tet) controllable system (Lin, et al. (2004) J. Neurosci. 24: 10074-10083) were generated. To drive tTA expression in astrocytes, the transcriptional regulatory region of the glial fibrillary acidic protein (GFAP) gene was chosen (Brenner, et al. (1994) J. Neurosci. 14: 1030-1037). GFAP/tTA mice were mated with TRE/IFN-γ mice to produce animals hemizygous for both transgenes. When these mice are maintained on doxycycline (DOX+), expression of the IFN-γ transgene is repressed (FIG. 10A); when the double transgenic mice are released from doxycycline (DOX−) INF-γ is expressed. For the purpose of these experiments, mice received doxycycline up to day 14 of development (E14), at which time the experimental animals (DOX−) stopped receiving doxycycline, while the control animals (DOX+) were continuously fed the dug. The mRNA for IFN-γ could be detected in the DOX− mice as early as 10 days after birth (data not shown).\nReal time PCR analysis was performed to determine the levels of expression of INF-γ, MHC-1, BIP, CHOP, and caspase 12. The primers for the PCR reactions for BIP, CHP and caspase 12 are given in example 1. The sense and antisense primers for INF-γ were […] (SEQ ID NO: 39) and […] (SEQ ID NO: 40), respectively; and the sense and antisense primers for MHC-1 were MHC-I sense primer: ATTCCCCAAAGGCCCATGT (SEQ ID NO: 1); and MHC-I antisense primer: […] (SEQ ID NO: 2).\nWestern blot analysis was performed on the CNS of 14 day old mice to determine the expression of caspase-12 as described in Example 6."}, "[3]": {"test_system": "myelin basic protein (MBP)", "test": "Hippocampal organotypic cultures (HOC), in vitro model of myelination, MBP Western blot", "type": "cell-based", "conditions": "100 U/ml IFN-γ, 7 days, HOCs", "experimental": "HOCs, were prepared and maintained as described previously (Kunkler and Kraig (1997) J Cereb Blood Flow Metab. 17:26-43), and were maintained in vitro for 7 days before use. SAL at various concentrations was combined with 100 U/ml IFN-γ and added to the HOC cultures for 7 days. […] After 7 days of 100 U/ml IFN-γ exposure, the levels of MBP decreased approximately 80% in the HOCs (FIG. 29)."}}, "data": [{"molecule": "B1", "values": [{"measurement": "mean maximum clinical score", "setting": "mice with EAE; PID17, 0-5 point scale, DOX+ 2.66±0.80", "result": "2.69±0.69"}, {"measurement": "mice that developed hind limb paralysis", "setting": "mice with EAE; PID17, control twenty of 25", "result": "24 of 30"}, {"measurement": "mice with hind limb paralysis that continued to suffer from the paralysis", "setting": "mice with EAE; PID50", "result": "12/24"}, {"measurement": "clinical score", "setting": "mice with EAE; PID 50, control DOX+ less than 1", "result": "~2"}, {"measurement": "remyelinated axons", "setting": "[1]; DOX−PERK+/+ mice, DOX+ 54.0%±4.3%", "result": "31.1%±7.6%"}, {"measurement": "number of CC1 positive oligodendrocytes", "setting": "[1]; DOX−PERK+/+ mice, week 9, DOX+PERK+/+ 283.2±27.7", "result": "123.2±27.5 /0.04 mm^2"}, {"measurement": "remyelinated axons", "setting": "[1]; DOX−PERK+/− mice, 3 weeks after cuprizone removal", "result": "15.6%±7.6%"}, {"measurement": "number of oligodendrocytes positive for caspase-3, DOX−PERK+/− versus DOX−PERK+/+", "setting": "[1]; corpus callosum, week 9", "result": 2.3, "unit": "times"}, {"measurement": "BIP expression", "setting": "[2]", "result": "approximately 1.6 times the control levels"}, {"measurement": "CHOP expression", "setting": "[2]", "result": "~2", "unit": "times the control levels"}, {"measurement": "caspase-12 expression", "setting": "[2]", "result": "strongly enhanced"}, {"measurement": "decrease of MBP levels", "setting": "[3]", "result": "approximately 80%"}]}]}
